Results published in patent US20220372155A1 (LYVGEN BIOPHARMA, published 2022).

T1: human B7H4 expressed on CHO cells (human, UniProt Q7Z7D3 25-282)
T1 construct: whole, on cells; also called VCTN1
T1 sequence (looked up): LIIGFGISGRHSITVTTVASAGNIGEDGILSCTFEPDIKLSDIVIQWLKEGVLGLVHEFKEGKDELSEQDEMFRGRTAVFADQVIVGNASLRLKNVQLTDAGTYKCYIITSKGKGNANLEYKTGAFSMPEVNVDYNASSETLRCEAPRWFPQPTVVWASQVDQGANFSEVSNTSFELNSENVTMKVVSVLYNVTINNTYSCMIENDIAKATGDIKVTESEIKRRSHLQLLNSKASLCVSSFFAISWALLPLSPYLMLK

B1: Ly624 (bispecific antibody, human IgG1, kappa)
heavy: EVQLVESGGGLVQPGGSLRLSCAASGFTFTDYTMDWVRQAPGKGLEWVADVNPNSGGSIYNQRFKGRFTLSVDRSKNTLYLQMNSLRAEDTAVYYCARNLGPSFYFDYWGQGTLVTVSSASTKGPSVFPLAPSSKSTSGGTAALGCLVKDYFPEPVTVSWNSGALTSGVHTFPAVLQSSGLYSLSSVVTVPSSSLGTQTYICNVNHKPSNTKVDKKVEPKSCDKTHTCPPCPAPELLGPSVFLFPPKPKDTLMISRTPEVTCVVVDVSHEDPEVKFNWYVDGVEVHNAKTKPREEQYNSTYRVVSVLTVLHQDWLNGKEYKCKVSNKALPAPIEKTISKAKGQPREPQVYTLPPSREEMTKNQVSLTCLVKGFYPSDIAVEWESNGQPENNYKTTPPVLDSDGSFFLYSKLTVDKSRWQQGNVFSCSVMHEALHNHYTQKSLSLSPGGGGGSGGGGSGGGGSGGGGSDIQMTQSPSSLSASVGDRVTITCLASEDISNDLAWYQQKPGKAPKLLIYFVDRLLDGVPSRFSGSGSGTDFTLTISSLQPEDFATYYCQQSYKYPPTFGQGTKLEIKGGGGSGGGGSGGGGSGGGGSEVQLVESGGGLVQPGGSLRLSCAASGFTFTNYGLHWVRQAPGKGLEWVSSISPSGGVTYYRDSVKGRFTISRDNSKNTLYLQMNSLRAEDTAVYYCAKPFLGWGGANWIAHWGQGTLVTVSS
light: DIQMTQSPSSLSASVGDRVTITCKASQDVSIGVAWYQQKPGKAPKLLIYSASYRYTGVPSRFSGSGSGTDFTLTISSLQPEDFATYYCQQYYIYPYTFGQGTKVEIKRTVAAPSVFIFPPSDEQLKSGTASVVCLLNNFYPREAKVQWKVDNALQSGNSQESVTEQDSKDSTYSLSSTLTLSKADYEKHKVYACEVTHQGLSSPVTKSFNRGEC
notes: Ly591 HC (IgG1 mutated Fc)-TM559 (printed TM599) scFv VL-VH + Ly591 LC
B2: Ly625 (bispecific antibody, human IgG1, kappa)
heavy: EVQLVESGGGLVQPGGSLRLSCAASGFTFTDYTMDWVRQAPGKGLEWVADVNPNSGGSIYNQRFKGRFTLSVDRSKNTLYLQMNSLRAEDTAVYYCARNLGPSFYFDYWGQGTLVTVSSASTKGPSVFPLAPSSKSTSGGTAALGCLVKDYFPEPVTVSWNSGALTSGVHTFPAVLQSSGLYSLSSVVTVPSSSLGTQTYICNVNHKPSNTKVDKKVEPKSCDKTHTCPPCPAPELLGPSVFLFPPKPKDTLMISRTPEVTCVVVDVSHEDPEVKFNWYVDGVEVHNAKTKPREEQYNSTYRVVSVLTVLHQDWLNGKEYKCKVSNKALPAPIEKTISKAKGQPREPQVYTLPPSREEMTKNQVSLTCLVKGFYPSDIAVEWESNGQPENNYKTTPPVLDSDGSFFLYSKLTVDKSRWQQGNVFSCSVMHEALHNHYTQKSLSLSPGGGGGSGGGGSGGGGSGGGGSEVQLVESGGGLVQPGGSLRLSCAASGFTFTNYGLHWVRQAPGKGLEWVSSISPSGGVTYYRDSVKGRFTISRDNSKNTLYLQMNSLRAEDTAVYYCAKPFLGWGGANWIAHWGQGTLVTVSSGGGGSGGGGSGGGGSGGGGSDIQMTQSPSSLSASVGDRVTITCLASEDISNDLAWYQQKPGKAPKLLIYFVDRLLDGVPSRFSGSGSGTDFTLTISSLQPEDFATYYCQQSYKYPPTFGQGTKLEIK
light: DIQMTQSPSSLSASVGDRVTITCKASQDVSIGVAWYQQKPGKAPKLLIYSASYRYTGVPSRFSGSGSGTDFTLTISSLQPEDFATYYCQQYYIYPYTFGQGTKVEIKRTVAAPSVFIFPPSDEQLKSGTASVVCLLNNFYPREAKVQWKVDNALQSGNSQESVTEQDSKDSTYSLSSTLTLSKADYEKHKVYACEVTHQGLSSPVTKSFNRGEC
notes: Ly591 HC (IgG1 mutated Fc)-TM559 (printed TM599) scFv VH-VL + Ly591 LC
B3: LP3772 (antibody, human IgG4 S228P, kappa)
heavy: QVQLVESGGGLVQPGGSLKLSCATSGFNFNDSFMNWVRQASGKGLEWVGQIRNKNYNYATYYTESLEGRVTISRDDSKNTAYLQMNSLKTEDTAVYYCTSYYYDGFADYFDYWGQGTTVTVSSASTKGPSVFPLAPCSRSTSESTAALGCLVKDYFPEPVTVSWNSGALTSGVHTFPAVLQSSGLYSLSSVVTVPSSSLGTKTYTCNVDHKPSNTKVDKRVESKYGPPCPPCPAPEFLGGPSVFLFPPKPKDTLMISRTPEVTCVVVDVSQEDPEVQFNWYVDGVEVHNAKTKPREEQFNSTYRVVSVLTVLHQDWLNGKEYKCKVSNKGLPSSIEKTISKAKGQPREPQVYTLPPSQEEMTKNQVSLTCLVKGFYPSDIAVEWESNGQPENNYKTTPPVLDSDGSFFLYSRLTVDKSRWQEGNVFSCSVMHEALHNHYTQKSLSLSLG
light: DIQMTQSPSSLSASVGDRVTITCKASQNIYIYLNWYQQKPGKAPKLLIYNTNNLQTGVPSRFSGSGSGTDFTLTISSLQPEDFATYYCLQHSSRRTFGGGTKVEIKRTVAAPSVFIFPPSDEQLKSGTASVVCLLNNFYPREAKVQWKVDNALQSGNSQESVTEQDSKDSTYSLSSTLTLSKADYEKHKVYACEVTHQGLSSPVTKSFNRGEC
notes: VH-2/IgG4, VL-1/kappa
B4: Ly623 (bispecific antibody, human IgG1, kappa)
heavy: EVQLVESGGGLVQPGGSLRLSCAASGFTFTDYTMDWVRQAPGKGLEWVADVNPNSGGSIYNQRFKGRFTLSVDRSKNTLYLQMNSLRAEDTAVYYCARNLGPSFYFDYWGQGTLVTVSSASTKGPSVFPLAPSSKSTSGGTAALGCLVKDYFPEPVTVSWNSGALTSGVHTFPAVLQSSGLYSLSSVVTVPSSSLGTQTYICNVNHKPSNTKVDKKVEPKSCDKTHTCPPCPAPELLGPSVFLFPPKPKDTLMISRTPEVTCVVVDVSHEDPEVKFNWYVDGVEVHNAKTKPREEQYNSTYRVVSVLTVLHQDWLNGKEYKCKVSNKALPAPIEKTISKAKGQPREPQVYTLPPSREEMTKNQVSLTCLVKGFYPSDIAVEWESNGQPENNYKTTPPVLDSDGSFFLYSKLTVDKSRWQQGNVFSCSVMHEALHNHYTQKSLSLSPGGGGGSGGGGSGGGGSGGGGSQVQLVESGGGLVQPGGSLKLSCATSGFNFNDYFMNWVRQASGKGLEWVGQIRNKNYNYATYYTESLEGRVTISRDDSKNTAYLQMNSLKTEDTAVYYCTSYYYDGFADYFDYWGQGTTVTVSSGGGGSGGGGSGGGGSGGGGSDIQMTQSPSSLSASVGDRVTITCKASQNIYIYLNWYQQKPGKAPKLLIYNTNNLQTGVPSRFSGSGSGTDFTLTISSLQPEDFATYYCLQHSSRRTFGGGTKVEIK
light: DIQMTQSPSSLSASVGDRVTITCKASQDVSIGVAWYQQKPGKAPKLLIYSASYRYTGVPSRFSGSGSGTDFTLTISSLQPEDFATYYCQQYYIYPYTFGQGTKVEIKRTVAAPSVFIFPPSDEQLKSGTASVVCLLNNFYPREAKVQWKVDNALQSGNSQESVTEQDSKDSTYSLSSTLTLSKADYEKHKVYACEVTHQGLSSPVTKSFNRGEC
notes: Ly591 HC (IgG1 mutated Fc)-TM740 scFv VH-VL + Ly591 LC
B5: Ly825 (bispecific antibody, human IgG1, kappa)
heavy: EVQLVESGGGLVQPGGSLRLSCAASGFTFTDYTMDWVRQAPGKGLEWVADVNPNSGGSIYNQRFKGRFTLSVDRSKNTLYLQMNSLRAEDTAVYYCARNLGPSFYFDYWGQGTLVTVSSASTKGPSVFPLAPSSKSTSGGTAALGCLVKDYFPEPVTVSWNSGALTSGVHTFPAVLQSSGLYSLSSVVTVPSSSLGTQTYICNVNHKPSNTKVDKKVEPKSCDKTHTCPPCPAPELLGPSVFLFPPKPKDTLMISRTPEVTCVVVDVSHEDPEVKFNWYVDGVEVHNAKTKPREEQYNSTYRVVSVLTVLHQDWLNGKEYKCKVSNKALPAPIEKTISKAKGQPREPQVYTLPPSREEMTKNQVSLTCLVKGFYPSDIAVEWESNGQPENNYKTTPPVLDSDGSFFLYSKLTVDKSRWQQGNVFSCSVMHEALHNHYTQKSLSLSPG
light: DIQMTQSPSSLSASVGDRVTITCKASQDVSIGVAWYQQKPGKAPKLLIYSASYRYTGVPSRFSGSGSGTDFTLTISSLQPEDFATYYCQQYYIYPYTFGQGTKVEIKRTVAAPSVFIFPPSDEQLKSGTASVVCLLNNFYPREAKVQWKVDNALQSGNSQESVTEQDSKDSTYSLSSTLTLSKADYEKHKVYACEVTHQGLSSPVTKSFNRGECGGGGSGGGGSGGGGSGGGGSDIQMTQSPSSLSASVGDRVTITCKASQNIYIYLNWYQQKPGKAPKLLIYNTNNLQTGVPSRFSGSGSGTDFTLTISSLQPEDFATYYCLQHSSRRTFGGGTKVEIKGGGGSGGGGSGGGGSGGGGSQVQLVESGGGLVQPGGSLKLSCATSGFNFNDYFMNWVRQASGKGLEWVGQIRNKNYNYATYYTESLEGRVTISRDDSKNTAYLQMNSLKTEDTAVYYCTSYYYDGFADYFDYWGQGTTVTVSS
notes: Ly591 HC (IgG1 mutated Fc) + Ly591 LC-TM740 scFv VL-VH
B6: Ly836 (bispecific antibody, human IgG1, kappa)
heavy: EVQLVESGGGLVQPGGSLRLSCAASGFTFTDYTMDWVRQAPGKGLEWVADVNPNSGGSIYNQRFKGRFTLSVDRSKNTLYLQMNSLRAEDTAVYYCARNLGPSFYFDYWGQGTLVTVSSASTKGPSVFPLAPSSKSTSGGTAALGCLVKDYFPEPVTVSWNSGALTSGVHTFPAVLQSSGLYSLSSVVTVPSSSLGTQTYICNVNHKPSNTKVDKKVEPKSCDKTHTCPPCPAPELLGPSVFLFPPKPKDTLMISRTPEVTCVVVDVSHEDPEVKFNWYVDGVEVHNAKTKPREEQYNSTYRVVSVLTVLHQDWLNGKEYKCKVSNKALPAPIEKTISKAKGQPREPQVYTLPPSREEMTKNQVSLTCLVKGFYPSDIAVEWESNGQPENNYKTTPPVLDSDGSFFLYSKLTVDKSRWQQGNVFSCSVMHEALHNHYTQKSLSLSPG
light: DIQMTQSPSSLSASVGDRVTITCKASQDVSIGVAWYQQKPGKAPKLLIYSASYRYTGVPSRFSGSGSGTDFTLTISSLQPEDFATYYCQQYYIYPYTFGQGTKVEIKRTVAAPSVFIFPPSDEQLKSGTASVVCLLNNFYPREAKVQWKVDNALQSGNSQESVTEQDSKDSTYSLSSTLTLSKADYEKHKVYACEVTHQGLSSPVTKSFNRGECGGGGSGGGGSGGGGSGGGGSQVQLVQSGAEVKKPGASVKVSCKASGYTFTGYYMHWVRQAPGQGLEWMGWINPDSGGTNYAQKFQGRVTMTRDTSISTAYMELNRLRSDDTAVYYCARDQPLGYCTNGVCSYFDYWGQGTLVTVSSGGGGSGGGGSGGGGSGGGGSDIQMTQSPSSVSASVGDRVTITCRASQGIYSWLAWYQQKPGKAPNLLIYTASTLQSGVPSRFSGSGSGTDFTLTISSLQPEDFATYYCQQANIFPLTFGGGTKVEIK
notes: Ly591 HC (IgG1 mutated Fc) + Ly591 LC-Ly253 scFv VH-VL
B7: Ly835 (bispecific antibody, human IgG1, kappa)
heavy: EVQLVESGGGLVQPGGSLRLSCAASGFTFTDYTMDWVRQAPGKGLEWVADVNPNSGGSIYNQRFKGRFTLSVDRSKNTLYLQMNSLRAEDTAVYYCARNLGPSFYFDYWGQGTLVTVSSASTKGPSVFPLAPSSKSTSGGTAALGCLVKDYFPEPVTVSWNSGALTSGVHTFPAVLQSSGLYSLSSVVTVPSSSLGTQTYICNVNHKPSNTKVDKKVEPKSCDKTHTCPPCPAPELLGPSVFLFPPKPKDTLMISRTPEVTCVVVDVSHEDPEVKFNWYVDGVEVHNAKTKPREEQYNSTYRVVSVLTVLHQDWLNGKEYKCKVSNKALPAPIEKTISKAKGQPREPQVYTLPPSREEMTKNQVSLTCLVKGFYPSDIAVEWESNGQPENNYKTTPPVLDSDGSFFLYSKLTVDKSRWQQGNVFSCSVMHEALHNHYTQKSLSLSPG
light: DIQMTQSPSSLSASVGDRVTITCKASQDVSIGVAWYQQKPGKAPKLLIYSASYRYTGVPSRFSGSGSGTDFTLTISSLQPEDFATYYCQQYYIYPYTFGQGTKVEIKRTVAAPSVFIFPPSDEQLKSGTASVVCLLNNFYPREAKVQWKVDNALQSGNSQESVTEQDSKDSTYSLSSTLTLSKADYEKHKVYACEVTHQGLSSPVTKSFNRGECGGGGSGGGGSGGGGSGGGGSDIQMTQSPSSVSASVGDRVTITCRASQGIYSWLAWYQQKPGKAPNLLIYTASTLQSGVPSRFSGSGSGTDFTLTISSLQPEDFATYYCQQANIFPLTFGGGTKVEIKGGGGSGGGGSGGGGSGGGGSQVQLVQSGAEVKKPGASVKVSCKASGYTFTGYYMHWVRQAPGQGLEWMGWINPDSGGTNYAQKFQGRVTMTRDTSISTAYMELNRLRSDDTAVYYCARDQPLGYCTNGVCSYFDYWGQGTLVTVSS
notes: Ly591 HC (IgG1 mutated Fc) + Ly591 LC-Ly253 scFv VL-VH
B8: Ly827 (bispecific antibody, human IgG1, kappa)
heavy: EVQLVESGGGLVQPGGSLRLSCAASGFTFTDYTMDWVRQAPGKGLEWVADVNPNSGGSIYNQRFKGRFTLSVDRSKNTLYLQMNSLRAEDTAVYYCARNLGPSFYFDYWGQGTLVTVSSASTKGPSVFPLAPSSKSTSGGTAALGCLVKDYFPEPVTVSWNSGALTSGVHTFPAVLQSSGLYSLSSVVTVPSSSLGTQTYICNVNHKPSNTKVDKKVEPKSCDKTHTCPPCPAPELLGPSVFLFPPKPKDTLMISRTPEVTCVVVDVSHEDPEVKFNWYVDGVEVHNAKTKPREEQYNSTYRVVSVLTVLHQDWLNGKEYKCKVSNKALPAPIEKTISKAKGQPREPQVYTLPPSREEMTKNQVSLTCLVKGFYPSDIAVEWESNGQPENNYKTTPPVLDSDGSFFLYSKLTVDKSRWQQGNVFSCSVMHEALHNHYTQKSLSLSPG
light: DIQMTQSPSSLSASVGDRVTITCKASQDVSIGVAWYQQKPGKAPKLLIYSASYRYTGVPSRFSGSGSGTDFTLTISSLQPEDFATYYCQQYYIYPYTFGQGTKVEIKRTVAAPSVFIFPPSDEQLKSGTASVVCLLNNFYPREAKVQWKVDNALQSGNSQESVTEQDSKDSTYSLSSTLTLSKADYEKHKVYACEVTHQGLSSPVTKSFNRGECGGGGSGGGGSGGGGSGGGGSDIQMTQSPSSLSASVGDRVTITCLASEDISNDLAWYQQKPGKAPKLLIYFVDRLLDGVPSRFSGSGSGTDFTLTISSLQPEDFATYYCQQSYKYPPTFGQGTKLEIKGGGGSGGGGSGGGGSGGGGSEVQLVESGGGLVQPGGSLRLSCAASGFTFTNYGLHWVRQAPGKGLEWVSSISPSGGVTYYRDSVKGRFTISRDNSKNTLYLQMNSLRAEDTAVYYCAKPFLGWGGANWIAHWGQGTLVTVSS
notes: Ly591 HC (IgG1 mutated Fc) + Ly591 LC-TM559 scFv VL-VH
B9: Ly828 (bispecific antibody, human IgG1, kappa)
heavy: EVQLVESGGGLVQPGGSLRLSCAASGFTFTDYTMDWVRQAPGKGLEWVADVNPNSGGSIYNQRFKGRFTLSVDRSKNTLYLQMNSLRAEDTAVYYCARNLGPSFYFDYWGQGTLVTVSSASTKGPSVFPLAPSSKSTSGGTAALGCLVKDYFPEPVTVSWNSGALTSGVHTFPAVLQSSGLYSLSSVVTVPSSSLGTQTYICNVNHKPSNTKVDKKVEPKSCDKTHTCPPCPAPELLGPSVFLFPPKPKDTLMISRTPEVTCVVVDVSHEDPEVKFNWYVDGVEVHNAKTKPREEQYNSTYRVVSVLTVLHQDWLNGKEYKCKVSNKALPAPIEKTISKAKGQPREPQVYTLPPSREEMTKNQVSLTCLVKGFYPSDIAVEWESNGQPENNYKTTPPVLDSDGSFFLYSKLTVDKSRWQQGNVFSCSVMHEALHNHYTQKSLSLSPG
light: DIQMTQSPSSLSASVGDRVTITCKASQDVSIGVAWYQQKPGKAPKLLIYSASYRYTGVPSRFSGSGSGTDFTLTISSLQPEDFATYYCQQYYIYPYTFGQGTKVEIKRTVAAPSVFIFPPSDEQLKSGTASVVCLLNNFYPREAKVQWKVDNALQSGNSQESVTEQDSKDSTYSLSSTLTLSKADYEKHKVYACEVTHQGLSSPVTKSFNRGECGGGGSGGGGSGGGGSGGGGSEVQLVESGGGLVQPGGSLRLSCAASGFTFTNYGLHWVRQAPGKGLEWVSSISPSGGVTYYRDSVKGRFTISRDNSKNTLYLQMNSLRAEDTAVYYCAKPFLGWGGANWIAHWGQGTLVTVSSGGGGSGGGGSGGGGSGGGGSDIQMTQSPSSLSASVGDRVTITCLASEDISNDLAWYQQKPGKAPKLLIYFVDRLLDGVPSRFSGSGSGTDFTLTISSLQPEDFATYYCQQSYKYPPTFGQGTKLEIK
notes: Ly591 HC (IgG1 mutated Fc) + Ly591 LC-TM559 scFv VH-VL
B10: Ly826 (bispecific antibody, human IgG1, kappa)
heavy: EVQLVESGGGLVQPGGSLRLSCAASGFTFTDYTMDWVRQAPGKGLEWVADVNPNSGGSIYNQRFKGRFTLSVDRSKNTLYLQMNSLRAEDTAVYYCARNLGPSFYFDYWGQGTLVTVSSASTKGPSVFPLAPSSKSTSGGTAALGCLVKDYFPEPVTVSWNSGALTSGVHTFPAVLQSSGLYSLSSVVTVPSSSLGTQTYICNVNHKPSNTKVDKKVEPKSCDKTHTCPPCPAPELLGPSVFLFPPKPKDTLMISRTPEVTCVVVDVSHEDPEVKFNWYVDGVEVHNAKTKPREEQYNSTYRVVSVLTVLHQDWLNGKEYKCKVSNKALPAPIEKTISKAKGQPREPQVYTLPPSREEMTKNQVSLTCLVKGFYPSDIAVEWESNGQPENNYKTTPPVLDSDGSFFLYSKLTVDKSRWQQGNVFSCSVMHEALHNHYTQKSLSLSPG
light: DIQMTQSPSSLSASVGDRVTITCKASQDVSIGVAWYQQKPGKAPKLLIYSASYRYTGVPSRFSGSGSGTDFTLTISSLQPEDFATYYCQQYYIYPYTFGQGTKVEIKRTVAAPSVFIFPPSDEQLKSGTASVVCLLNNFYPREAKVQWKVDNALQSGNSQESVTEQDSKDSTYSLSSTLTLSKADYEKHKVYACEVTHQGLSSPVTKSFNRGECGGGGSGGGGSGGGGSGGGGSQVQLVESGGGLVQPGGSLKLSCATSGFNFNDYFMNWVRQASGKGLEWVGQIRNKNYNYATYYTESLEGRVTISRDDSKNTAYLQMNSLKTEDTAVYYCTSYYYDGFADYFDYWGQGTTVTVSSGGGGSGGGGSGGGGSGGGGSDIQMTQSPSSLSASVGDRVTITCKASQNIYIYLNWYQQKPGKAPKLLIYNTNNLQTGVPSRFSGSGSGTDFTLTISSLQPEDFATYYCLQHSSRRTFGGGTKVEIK
notes: Ly591 HC (IgG1 mutated Fc) + Ly591 LC-TM740 scFv VH-VL
B11: Ly361 (chimeric) (antibody, human IgG1, kappa, V domains shown)
VH: EVQLVESGGDLVKPGGSLKLSCAASGFTFSSYGMSWVRQTPDKRLEWVAAISTGGSYTYYPDSVKGRFTISRDTATNTLYLQMSTLKSEDTAMYYCTRRGATGSWFAYWGQGTLVTVSA
VL: DILMTQSPSSMSVSLGDTVSITCHASQGINNNIGWLQRKPGKSFKGLIYHGTNLEDGVPSRFSGSGSGADYSLTISSLESEDFADYYCVQYVQFPRTFGGGTKLEIKR
notes: chimeric, human IgG1 constant region; also called hybridoma 14D3

Target: T2, human CD40 expressed on CHO cells (human, UniProt P25942 21-277)
T2 construct: whole, on cells; also used for the reporter cells over-expressing human CD40; also called cellular CD40; CHO-CD40 cells
T2 sequence (P25942 21-277): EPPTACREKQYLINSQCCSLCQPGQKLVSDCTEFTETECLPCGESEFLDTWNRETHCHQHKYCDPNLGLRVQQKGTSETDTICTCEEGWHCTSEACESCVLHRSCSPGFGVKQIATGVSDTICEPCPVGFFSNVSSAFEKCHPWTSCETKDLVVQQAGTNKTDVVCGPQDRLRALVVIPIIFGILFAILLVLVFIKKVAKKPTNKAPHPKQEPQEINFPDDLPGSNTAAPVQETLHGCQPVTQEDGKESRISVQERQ
Assay: FACS, CHO cells

Binding result, binds:
B1
B2
B3
B4
B5
B6
B7
B8
B9
B10

Target: T1, human B7H4 expressed on CHO cells
Assay: FACS, CHO cells

Binding result, binds:
B11
